# Reference: patent US20170081400A1 (CEPHALON, published 2017)
# T1: human TL1A extracellular domain with N-terminal HIS and FLAG tag (human, UniProt O95150 72-251)
# T1 construct: the whole entry is named
# T1 sequence: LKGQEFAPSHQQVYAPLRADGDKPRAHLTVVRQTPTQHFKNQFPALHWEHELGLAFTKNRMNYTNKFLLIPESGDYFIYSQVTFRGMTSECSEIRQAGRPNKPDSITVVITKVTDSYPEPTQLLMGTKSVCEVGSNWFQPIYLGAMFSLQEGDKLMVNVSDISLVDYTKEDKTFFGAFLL
# T2: human TL1A extracellular domain with N-terminal HIS and FLAG tag (human) (UniProt O95150)
# T2 sequence: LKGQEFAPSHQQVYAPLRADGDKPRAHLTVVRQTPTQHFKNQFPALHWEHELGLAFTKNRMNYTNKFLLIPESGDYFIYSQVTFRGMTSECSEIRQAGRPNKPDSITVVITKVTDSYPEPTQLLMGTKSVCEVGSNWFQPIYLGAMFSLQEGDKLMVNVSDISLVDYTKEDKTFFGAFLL
# Key:
# [1] = molecular target: T1, human TL1A extracellular domain with …; assay: SPR Run 4, purified Ab captured on Protein A, TL1A 5 ug/mL, timepoint 44
# From the text: (§1) 1.5. Antibody expression and antigen binding as determined by SPR. Using a CM5 sensor chip (GE Healthcare) Protein A (Pierce) was coupled to the chip surface using an amine coupling kit (GE Healthcare). Protein A was coupled on flow cell 1 and 2 (or alternatively 3 and 4) using a BIACORE® T200. […] The amount of supernatant or purified protein (as well as the concentration) injected during the capture stage varied between runs and is specified in the header of the Tables 3-11. At the end of injection of the supernatant or purified antibody the change in response units was measured. This value was reported as Capture Level in Tables 3-11. […] The response units were measured prior to the end of the dissociation phase. […] The sensorgrams were double referenced (flow cell 2 is subtracted from flow cell 1 and a buffer blank). As there were a large number of antibody variants to screen, these were screened across different runs (Tables 3-11). […] A summary of the conditions used in each run is below:
# (§2) 2.1. […] In some experiment the antibodies were purified using Protein A chromatography (See 1.4) and purified antibodies were used in BIACORE® (GE Healthcare) experiments.
# [2] = molecular target: T2, human TL1A extracellular domain with N-terminal HIS and FLAG tag (human); assay: cell-based or functional assay
# [3] = molecular target: T1, human TL1A extracellular domain with …; assay: SPR Run 4, purified Ab captured on Protein A, TL1A 5 ug/mL, timepoint 220
# From the text: as §1, §2
TL1A Binding Level (Early) [1],"Antibody IC50, TL1A induced caspase potency assay in TF-1 cells [2]","Fold improvement over 320-179, TL1A induced caspase potency assay in TF-1 cells [2]",TL1A Binding Level (Late) [3],Binder
141 RU,0.02 µg/mL,2 fold,132 RU,"320-313 (antibody, human IgG1, name in Kabat numbering, V domains shown, human IgG1, lambda) VH: QVQLVQSGAEVKKPGASVKVSCKASGYTFTSYDINWVRQAPGQGLEWMGWLNPNSGNTGYAQKFQGRVTMTADRSTSTAYMELSSLRSEDTAVYYCAREVPETAAFEYWGQGTLVTVSS VL: QSVLTQPPSVSGAPGQRVTISCTSSSSDIGAGLGVHWYQQLPGTAPKLLIEGYYNRPSGVPDRFSGSKSGTSASLTITGLLPEDEGDYYCHSYDGTLSALFGGGTKLTVLG"
102 RU,,,76 RU,"320-355 (antibody, human IgG1, name in Kabat numbering, V domains shown, human IgG1, lambda) VH: QVQLVQSGAEVKKPGASVKVSCKASGYTFTSYDINWVRQAPGQGLEWMGWLNPNSGNTGYAQKFQGRVTMTADRSTSTAYMELSSLRSEDTAVYYCAREVPETAAFEYWGQGTLVTVSS VL: QSVLTQPPSVSGAPGQRVTISCTSSSSDIGAGLGVHWYQQLPGTAPKLLIEGYYNRPSGVPDRFSGSKSGTSASLTITGLLPEDEGDYYCQSYDGLLSALFGGGTKLTVLG"
50 RU,,,26 RU,"320-368 (antibody, human IgG1, name in Kabat numbering, V domains shown, human IgG1, lambda) VH: QVQLVQSGAEVKKPGASVKVSCKASGYTFTSYDINWVRQAPGQGLEWMGWLNPNSGNTGYAQKFQGRVTMTADRSTSTAYMELSSLRSEDTAVYYCAREVPETAAFEYWGQGTLVTVSS VL: QSVLTQPPSVSGAPGQRVTISCTSSSSDIGAGLGVHWYQQLPGTAPKLLIEGYYNRPSGVPDRFSGSKSGTSASLTITGLLPEDEGDYYCQSYDGTLKALFGGGTKLTVLG"
119 RU,,,116 RU,"320-367 (antibody, human IgG1, name in Kabat numbering, V domains shown, human IgG1, lambda) VH: QVQLVQSGAEVKKPGASVKVSCKASGYTFTSYDINWVRQAPGQGLEWMGWLNPNSGNTGYAQKFQGRVTMTADRSTSTAYMELSSLRSEDTAVYYCAREVPETAAFEYWGQGTLVTVSS VL: QSVLTQPPSVSGAPGQRVTISCTSSSSDIGAGLGVHWYQQLPGTAPKLLIEGYYNRPSGVPDRFSGSKSGTSASLTITGLLPEDEGDYYCQSYDGTLHALFGGGTKLTVLG"
165 RU,0.02 µg/mL,2 fold,158 RU,"320-314 (antibody, human IgG1, name in Kabat numbering, V domains shown, human IgG1, lambda) VH: QVQLVQSGAEVKKPGASVKVSCKASGYTFTSYDINWVRQAPGQGLEWMGWLNPNSGNTGYAQKFQGRVTMTADRSTSTAYMELSSLRSEDTAVYYCAREVPETAAFEYWGQGTLVTVSS VL: QSVLTQPPSVSGAPGQRVTISCTSSSSDIGAGLGVHWYQQLPGTAPKLLIEGYYNRPSGVPDRFSGSKSGTSASLTITGLLPEDEGDYYCKSYDGTLSALFGGGTKLTVLG"
57 RU,,,27 RU,"320-359 (antibody, human IgG1, name in Kabat numbering, V domains shown, human IgG1, lambda) VH: QVQLVQSGAEVKKPGASVKVSCKASGYTFTSYDINWVRQAPGQGLEWMGWLNPNSGNTGYAQKFQGRVTMTADRSTSTAYMELSSLRSEDTAVYYCAREVPETAAFEYWGQGTLVTVSS VL: QSVLTQPPSVSGAPGQRVTISCTSSSSDIGAGLGVHWYQQLPGTAPKLLIEGYYNRPSGVPDRFSGSKSGTSASLTITGLLPEDEGDYYCQSYDGTSSALFGGGTKLTVLG"
119 RU,,,91 RU,"320-357 (antibody, human IgG1, name in Kabat numbering, V domains shown, human IgG1, lambda) VH: QVQLVQSGAEVKKPGASVKVSCKASGYTFTSYDINWVRQAPGQGLEWMGWLNPNSGNTGYAQKFQGRVTMTADRSTSTAYMELSSLRSEDTAVYYCAREVPETAAFEYWGQGTLVTVSS VL: QSVLTQPPSVSGAPGQRVTISCTSSSSDIGAGLGVHWYQQLPGTAPKLLIEGYYNRPSGVPDRFSGSKSGTSASLTITGLLPEDEGDYYCQSYDGYLSALFGGGTKLTVLG"
109 RU,,,86 RU,"320-356 (antibody, human IgG1, name in Kabat numbering, V domains shown, human IgG1, lambda) VH: QVQLVQSGAEVKKPGASVKVSCKASGYTFTSYDINWVRQAPGQGLEWMGWLNPNSGNTGYAQKFQGRVTMTADRSTSTAYMELSSLRSEDTAVYYCAREVPETAAFEYWGQGTLVTVSS VL: QSVLTQPPSVSGAPGQRVTISCTSSSSDIGAGLGVHWYQQLPGTAPKLLIEGYYNRPSGVPDRFSGSKSGTSASLTITGLLPEDEGDYYCQSYDGWLSALFGGGTKLTVLG"
86 RU,,,53 RU,"320-360 (antibody, human IgG1, name in Kabat numbering, V domains shown, human IgG1, lambda) VH: QVQLVQSGAEVKKPGASVKVSCKASGYTFTSYDINWVRQAPGQGLEWMGWLNPNSGNTGYAQKFQGRVTMTADRSTSTAYMELSSLRSEDTAVYYCAREVPETAAFEYWGQGTLVTVSS VL: QSVLTQPPSVSGAPGQRVTISCTSSSSDIGAGLGVHWYQQLPGTAPKLLIEGYYNRPSGVPDRFSGSKSGTSASLTITGLLPEDEGDYYCQSYDGTQSALFGGGTKLTVLG"
53 RU,,,30 RU,"320-354 (antibody, human IgG1, name in Kabat numbering, V domains shown, human IgG1, lambda) VH: QVQLVQSGAEVKKPGASVKVSCKASGYTFTSYDINWVRQAPGQGLEWMGWLNPNSGNTGYAQKFQGRVTMTADRSTSTAYMELSSLRSEDTAVYYCAREVPETAAFEYWGQGTLVTVSS VL: QSVLTQPPSVSGAPGQRVTISCTSSSSDIGAGLGVHWYQQLPGTAPKLLIEGYYNRPSGVPDRFSGSKSGTSASLTITGLLPEDEGDYYCQSYDGKLSALFGGGTKLTVLG"
82 RU,,,50 RU,"320-358 (antibody, human IgG1, name in Kabat numbering, V domains shown, human IgG1, lambda) VH: QVQLVQSGAEVKKPGASVKVSCKASGYTFTSYDINWVRQAPGQGLEWMGWLNPNSGNTGYAQKFQGRVTMTADRSTSTAYMELSSLRSEDTAVYYCAREVPETAAFEYWGQGTLVTVSS VL: QSVLTQPPSVSGAPGQRVTISCTSSSSDIGAGLGVHWYQQLPGTAPKLLIEGYYNRPSGVPDRFSGSKSGTSASLTITGLLPEDEGDYYCQSYDGTASALFGGGTKLTVLG"
89 RU,,,60 RU,"320-369 (antibody, human IgG1, name in Kabat numbering, V domains shown, human IgG1, lambda) VH: QVQLVQSGAEVKKPGASVKVSCKASGYTFTSYDINWVRQAPGQGLEWMGWLNPNSGNTGYAQKFQGRVTMTADRSTSTAYMELSSLRSEDTAVYYCAREVPETAAFEYWGQGTLVTVSS VL: QSVLTQPPSVSGAPGQRVTISCTSSSSDIGAGLGVHWYQQLPGTAPKLLIEGYYNRPSGVPDRFSGSKSGTSASLTITGLLPEDEGDYYCQSYDGTLLALFGGGTKLTVLG"
66 RU,,,39 RU,"320-370 (antibody, human IgG1, name in Kabat numbering, V domains shown, human IgG1, lambda) VH: QVQLVQSGAEVKKPGASVKVSCKASGYTFTSYDINWVRQAPGQGLEWMGWLNPNSGNTGYAQKFQGRVTMTADRSTSTAYMELSSLRSEDTAVYYCAREVPETAAFEYWGQGTLVTVSS VL: QSVLTQPPSVSGAPGQRVTISCTSSSSDIGAGLGVHWYQQLPGTAPKLLIEGYYNRPSGVPDRFSGSKSGTSASLTITGLLPEDEGDYYCQSYDGTLWALFGGGTKLTVLG"
141 RU,,,128 RU,"320-365 (antibody, human IgG1, name in Kabat numbering, V domains shown, human IgG1, lambda) VH: QVQLVQSGAEVKKPGASVKVSCKASGYTFTSYDINWVRQAPGQGLEWMGWLNPNSGNTGYAQKFQGRVTMTADRSTSTAYMELSSLRSEDTAVYYCAREVPETAAFEYWGQGTLVTVSS VL: QSVLTQPPSVSGAPGQRVTISCTSSSSDIGAGLGVHWYQQLPGTAPKLLIEGYYNRPSGVPDRFSGSKSGTSASLTITGLLPEDEGDYYCQSYDGTLQALFGGGTKLTVLG"
124 RU,,,109 RU,"320-364 (antibody, human IgG1, name in Kabat numbering, V domains shown, human IgG1, lambda) VH: QVQLVQSGAEVKKPGASVKVSCKASGYTFTSYDINWVRQAPGQGLEWMGWLNPNSGNTGYAQKFQGRVTMTADRSTSTAYMELSSLRSEDTAVYYCAREVPETAAFEYWGQGTLVTVSS VL: QSVLTQPPSVSGAPGQRVTISCTSSSSDIGAGLGVHWYQQLPGTAPKLLIEGYYNRPSGVPDRFSGSKSGTSASLTITGLLPEDEGDYYCQSYDGTLAALFGGGTKLTVLG"
62 RU,,,31 RU,"320-366 (antibody, human IgG1, name in Kabat numbering, V domains shown, human IgG1, lambda) VH: QVQLVQSGAEVKKPGASVKVSCKASGYTFTSYDINWVRQAPGQGLEWMGWLNPNSGNTGYAQKFQGRVTMTADRSTSTAYMELSSLRSEDTAVYYCAREVPETAAFEYWGQGTLVTVSS VL: QSVLTQPPSVSGAPGQRVTISCTSSSSDIGAGLGVHWYQQLPGTAPKLLIEGYYNRPSGVPDRFSGSKSGTSASLTITGLLPEDEGDYYCQSYDGTLDALFGGGTKLTVLG"
92 RU,,,70 RU,"320-371 (antibody, human IgG1, name in Kabat numbering, V domains shown, human IgG1, lambda) VH: QVQLVQSGAEVKKPGASVKVSCKASGYTFTSYDINWVRQAPGQGLEWMGWLNPNSGNTGYAQKFQGRVTMTADRSTSTAYMELSSLRSEDTAVYYCAREVPETAAFEYWGQGTLVTVSS VL: QSVLTQPPSVSGAPGQRVTISCTSSSSDIGAGLGVHWYQQLPGTAPKLLIEGYYNRPSGVPDRFSGSKSGTSASLTITGLLPEDEGDYYCQSYDGTLYALFGGGTKLTVLG"
